We go through four proteins from publication PMC3818340.

Residue numbers refer to the chain shown, from its start. Names and notes keep the numbering of the source.

Substrate in data set [1]: CC#CC(=O)C(=O)O
Briefly: purified protein. It is filed as biochemical, coryneform bacterium. To be noted: 20 mM sodium phosphate buffer, pH 9.0, 24 °C.

Substrate in data set [2]: CC#CC(=O)C(=O)O
Briefly: purified protein. It counts as biochemical, Pseudomonas pavonaceae. The conditions noted are these: 20 mM sodium phosphate buffer, pH 9.0, 24 °C.

B1: FG41 MSAD (coryneform bacterium) (protein)
chain: PLIRIDLTSDRSREQRRAIADAVHDALVEVLAIPARDRFQILTAHDPSDIIAEDAGLGFQRSPSVVIIHVFTQAGRTIETKQRVFAAITESLAPIGVAGSDVFIAITENAPHDWSFGFGSAQYVTGELAIPATGAA
What is called Km is the concentration of substrate that gives half-maximal velocity. A word on the kcat: it is the maximal rate divided by the concentration of active sites. In general, kcat/Km refers to the turnover number divided by the Michaelis constant. Turning to B1, in the data set “purified protein [1]”, the Km was determined as 7.3 ± 0.8 mM, the catalytic constant (kcat) was 0.17 ± 0.01 s⁻¹ and the catalytic efficiency (kcat/Km) stood at 20 M⁻¹ s⁻¹.

B2: FG41 MSAD (coryneform bacterium; Y123F) (protein)
chain: B1 chain with Y123F
Consider B2, for which, in the data set “purified protein [1]”, the Km is 21 ± 5 mM, the kcat was 0.7 ± 0.1 s⁻¹ and the specificity constant (kcat/Km) was found to be 30 M⁻¹ s⁻¹.

B3: FG41 MSAD (coryneform bacterium; Q73R) (protein)
chain: B1 chain with Q73R
On to B3, for which, in the data set “purified protein [1]”, the Km turned out to be 6.6 ± 1.5 mM, the kcat turned out to be 1.2 ± 0.2 s⁻¹ and the kcat/Km amounted to 180 M⁻¹ s⁻¹.

B4: Pp MSAD (Pseudomonas pavonaceae) (protein)
chain: PLLKFDIFYGRTDAQIKSLLDAAHGAMVDAFGVPANDRYQTVSQHRPGEMVLEDTGLGYGRSSAVVLLTVISRPRSEEQKVCFYKLLTGALERDCGISPDDVIVALVENSDADWSFGRGRAEFLTGDLV
Regarding B4, in the data set “purified protein [2]”, the Km is 3 ± 1.2 mM, the kcat worked out at 3.4 ± 0.8 s⁻¹ and the kcat/Km is 1130 M⁻¹ s⁻¹.
